Results on one molecule are retold here after article PMC5037330, “Large-Scale Movements of IF3 and tRNA during Bacterial Translation Initiation” (Cell, 2016).

The assay has as its target T1, IF3 Thermus thermophilus (Thermus thermophilus, UniProt Q5SKU2 1-171).
T1 construct: Translation initiation factor IF3 of Thermus thermophilus; residues 3 to 170 were modelled (N-terminal domain, helical linker, C-terminal domain); also called initiation factor 3; NTD; source: E. coli BL21(DE3), purified (same protocol as IF1: 65°C heat step, ion exchange, hydroxylapatite)
T1 sequence: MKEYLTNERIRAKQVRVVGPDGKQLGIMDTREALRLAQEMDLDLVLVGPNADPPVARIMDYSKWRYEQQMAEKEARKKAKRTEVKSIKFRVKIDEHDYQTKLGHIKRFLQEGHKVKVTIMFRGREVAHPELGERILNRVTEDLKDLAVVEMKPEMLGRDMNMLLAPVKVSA
Briefly: cryo-EM structure; Sample 1 (without IF2): T. thermophilus 30S, IF1, IF3, mRNA and fMet-tRNA mixed 1:4:4:3:3, complex at 120 nM, 5 mM HEPES pH 7.5, 10 mM MgAc, 50 mM KCl, 10 mM NH4Cl, 6 mM 2-mercaptoethanol; put on grids without further purification; classes PIC-1A to PIC-4. The following applies: both partners purified.

B1: IF1 Thermus thermophilus (natural protein)
chain: MAKEKDTIRTEGVVTEALPNATFRVKLDSGPEILAYISGKMRMHYIRILPGDRVVVEITPYDPTRGRIVYRK
notes: Translation initiation factor IF1 of Thermus thermophilus, expressed as in Carter et al., 2001; also called initiation factor 1; source: E. coli BL21(DE3), purified (65°C heat step, ion exchange, hydroxylapatite)
B1: the binding result was “binds”.
